Measurements: paper PMC7801617, “Cancer associated talin point mutations disorganise cell adhesion and migration” (Scientific Reports, 2021)
Values belong to the binder of their own block, whether it stands above or below them. No end group written: not given here.

Key:
[1] = molecular target: T1, talin-1 R7–R8 fragment (residues 1355–1652) with mutation R1368W (mouse, UniProt P26039 1355-1652, R1368W); assay: SEC; Vd1 and talin R7–R8 incubated at a 2:1 ratio at a concentration of 100 µM, analysed at room temperature; elution fractions on SDS-PAGE; conditions: both partners purified
T1 construct: talin-1, mouse, R7–R8 domains, residues 1355–1652, with R1368W; The mutation is a somatic mutation of human cancers (COSMIC; also in the 1000 Genomes database), put into the mouse talin-1 fragment by site-directed mutagenesis; also called R7–R8 R1368W; source: E. coli BL21 (DE3), purified (HisTrap HP, HiTrap Q HP anion exchange)
T1 sequence (P26039 1355-1652 R1368W): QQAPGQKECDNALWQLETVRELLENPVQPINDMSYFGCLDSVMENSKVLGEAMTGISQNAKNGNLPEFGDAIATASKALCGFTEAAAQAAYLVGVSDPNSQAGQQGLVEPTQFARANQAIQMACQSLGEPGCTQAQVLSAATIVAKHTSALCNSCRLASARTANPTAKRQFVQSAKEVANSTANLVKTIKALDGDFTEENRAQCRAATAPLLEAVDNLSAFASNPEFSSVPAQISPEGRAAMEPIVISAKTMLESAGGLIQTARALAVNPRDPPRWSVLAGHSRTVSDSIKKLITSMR

[2] = molecular target: T2, talin-1 R7–R8 fragment, wildtype (residues 1355–1652) (mouse, UniProt P26039 1355-1652); assay: as above; conditions: both partners purified
T2 construct: talin-1, mouse, R7–R8 domains, residues 1355–1652, made from full-length mouse talin-1 as template; also called R7–R8 WT; Wildtype R7–R8; source: E. coli BL21 (DE3), purified (HisTrap HP, HiTrap Q HP anion exchange)
T2 sequence (P26039 1355-1652): as the sequence (P26039 1355-1652 R1368W) above, with W14R counted along it

[3] = molecular target: T3, talin-1 R7–R8 fragment (residues 1355–1652) with mutation Y1389C (mouse, UniProt P26039 1355-1652, Y1389C); assay: as above; conditions: both partners purified
T3 construct: talin-1, mouse, R7–R8 domains, residues 1355–1652, with Y1389C; The mutation is a somatic mutation of human cancers (COSMIC), put into the mouse talin-1 fragment by site-directed mutagenesis; also called R7–R8 Y1389C; source: E. coli BL21 (DE3), purified (HisTrap HP, HiTrap Q HP anion exchange)
T3 sequence (P26039 1355-1652 Y1389C): as the sequence (P26039 1355-1652 R1368W) above, with W14R, Y35C counted along it

[4] = molecular target: T1, talin-1 R7–R8 fragment (residues …); assay: fluorescence polarisation; R7–R8 protein serially diluted from 60 µM with KANK1 (30–68) peptide at 1 µM, and from 75 µM with RIAM (4–30) peptide at 1 µM; 20 °C; CLARIOstar plate reader; one-site total binding equation; conditions: both partners purified
[5] = molecular target: T2, talin-1 R7–R8 fragment, wildtype …; assay: as above; conditions: both partners purified
[6] = molecular target: T3, talin-1 R7–R8 fragment (residues …); assay: as above; conditions: both partners purified
[7] = molecular target: the molecule itself; assay: SEC-MALS; 100 μM protein, room temperature, Superdex 75 column; Viscotek SEC–MALS 9 and RI detector; dimer or monomer

stoichiometry N [1]: 1
stoichiometry N [2]: 1
stoichiometry N [3]: 2
B1: vinculin Vd1 domain (residues 1–258) (domain or fragment, UniProt P12003 1-258, looked up)
chain: MPVFHTRTIESILEPVAQQISHLVIMHEEGEVDGKAIPDLTAPVSAVQAAVSNLVRVGKETVQTTEDQILKRDMPPAFIKVENACTKLVRAAQMLQADPYSVPARDYLIDGSRGILSGTSDLLLTFDEAEVRKIIRVCKGILEYLTVAEVVETMEDLVTYTKNLGPGMTKMAKMIDERQQELTHQEHRVMLVNSMNTVKELLPVLISAMKIFVTTKNTKSQGIEEALKNRNFTVEKMSAEINEIIRVLQLTSWDEDAW
notes: vinculin, Vd1 domain, residues 1–258

binding result [4]: binds
binding result [5]: binds
binding result [6]: binds
B2: RIAM (4–30) peptide (peptide)
peptide: SEDIDQMFSTLLGEMDLLTQSLGVDTC
modifications: also: BODIPY or Fluorescein dye coupled via C-terminal Cys
notes: RIAM, mouse, printed as residues 4–30; added C-terminal cysteine for coupling of the dye; also called RIAM peptide; LD-motif of RIAM; source: synthetic peptide (GLBiochem, China)

B3: talin-1 R13–DD fragment, wildtype (residues 2300–2541) (domain or fragment, mouse, UniProt P26039 2300-2541, looked up)
chain: DPTVIAENELLGAAAAIEAAAKKLEQLKPRAKPKEADESLNFEEQILEAAKSIAAATSALVKAASAAQRELVAQGKVGAIPANALDDGQWSQGLISAARMVAAATNNLCEAANAAVQGHASQEKLISSAKQVAASTAQLLVACKVKADQDSEAMKRLQAAGNAVKRASDNLVKAAQKAAAFEDQENETVVVKEKMVGGIAQIIAAQEEMLRKERELEEARKKLAQIRQQQYKFLPSELRDEH
notes: talin-1, mouse, R13 and dimerisation domain (DD), residues 2300–2541; Constitutive dimer by SEC–MALS; also called R13–DD WT; Talin R13–DD wildtype; source: E. coli BL21 (DE3), purified (HisTrap HP, HiTrap Q HP anion exchange)
stoichiometry N [7]: 2
